Reference: the supplement of paper PMC11246515
± gives the standard deviation of the averaged measurements.

Test: total protein half-life in vivo (active degradation + dilution); higher = more stable protein
[1] = E. coli NCM3722 delta-clpP delta-lon delta-hslV, growth: N-lim chemostat, doubling time 6 h
[2] = E. coli NCM3722 delta-clpP, growth: N-lim chemostat, doubling time 6 h
[3] = E. coli NCM3722 delta-lon, growth: N-lim chemostat, doubling time 6 h
[4] = E. coli NCM3722 delta-smpB, growth: N-lim chemostat, doubling time 6 h
[5] = wild type E. coli NCM3722, growth: C-lim chemostat, doubling time 3 h
[6] = wild type E. coli NCM3722, growth: C-lim chemostat, doubling time 6 h
[7] = wild type E. coli NCM3722, growth: C-lim chemostat, doubling time 12 h
[8] = wild type E. coli NCM3722, growth: N-lim chemostat, doubling time 6 h
[9] = wild type E. coli NCM3722, growth: N-lim chemostat, doubling time 12 h
[10] = wild type E. coli NCM3722, growth: P-lim chemostat, doubling time 6 h
[11] = wild type E. coli NCM3722, growth: P-lim chemostat, doubling time 12 h
[12] = E. coli NCM3722 delta-hslV, growth: N-lim chemostat, doubling time 6 h

| Sequence | total protein half-life in vivo [1] [h] | total protein half-life in vivo [2] [h] | total protein half-life in vivo [3] [h] | total protein half-life in vivo [4] [h] | total protein half-life in vivo [5] [h] | total protein half-life in vivo [6] [h] | total protein half-life in vivo [7] [h] | total protein half-life in vivo [8] [h] | total protein half-life in vivo [9] [h] | total protein half-life in vivo [10] [h] | total protein half-life in vivo [11] [h] | total protein half-life in vivo [12] [h] |
| --- | --- | --- | --- | --- | --- | --- | --- | --- | --- | --- | --- | --- |
| MTDQSHQCVIIGIAGASASGKSLIASTLYRELREQVGDEHIGVIPEDCYYKDQSHLSMEERVKTNYDHPSAMDHSLLLEHLQALKRGSAIDLPVYSYVEHTRMKETVTVEPKKVIILEGILLLTDARLRDELNFSIFVDTPLDICLMRRIKRDVNERGRSMDSVMAQYQKTVRPMFLQFIEPSKQYADIIVPRGGKNRIAIDILKAKISQFFE [P0A8F4] | 5.42 ± 0.4 | 4.6 ± 0.34 | 4.87 ± 1.3 | 4.376 ± 0.027 | 2.86 ± 0.035 | 5.074 ± 0.037 | 9.37 ± 0.41 | 4.36 ± 0.07 | 6.72 ± 0.17 | 5.11 ± 0.44 | 9.61 ± 2.1 |  |
| MQDKDFFSWRRTMLLRFQRMETAEEVYHEIELQAQQLEYDYYSLCVRHPVPFTRPKVAFYTNYPEAWVSYYQAKNFLAIDPVLNPENFSQGHLMWNDDLFSEAQPLWEAARAHGLRRGVTQYLMLPNRALGFLSFSRCSAREIPILSDELQLKMQLLVRESLMALMRLNDEIVMTPEMNFSKREKEILRWTAEGKTSAEIAMILSISENTVNFHQKNMQKKINAPNKTQVACYAAATGLI | 4.97 ± 0.28 |  |  |  |  |  |  |  |  |  |  |  |
| MSIISTKYLLQDAQANGYAVPAFNIHNAETIQAILEVCSEMRSPVILAGTPGTFKHIALEEIYALCSAYSTTYNMPLALHLDHHESLDDIRRKVHAGVRSAMIDGSHFPFAENVKLVKSVVDFCHSQDCSVEAELGRLGGVEDDMSVDAESAFLTDPQEAKRFVELTGVDSLAVAIGTAHGLYSKTPKIDFQRLAEIREVVDVPLVLHGASDVPDEFVRRTIELGVTKVNVATELKIAFAGAVKAWFAENPQGNDPRYYMRVGMDAMKEVVRNKINVCGSANRISA [P0AB74] | > 8 |  |  |  | 2.35 ± 1.1 | 3.2 | 4.72 |  |  |  |  |  |
| MCSIFGVFDIKTDAVELRKKALELSRLMRHRGPDWSGIYASDNAILAHERLSIVDVNAGAQPLYNQQKTHVLAVNGEIYNHQALRAEYGDRYQFQTGSDCEVILALYQEKGPEFLDDLQGMFAFALYDSEKDAYLIGRDHLGIIPLYMGYDEHGQLYVASEMKALVPVCRTIKEFPAGSYLWSQDGEIRSYYHRDWFDYDAVKDNVTDKNELRQALEDSVKSHLMSDVPYGVLLSGGLDSSIISAITKKYAARRVEDQERSEAWWPQLHSFAVGLPGSPDLKAAQEVANHLGTVHHEIHFTVQEGLDAIRDVIYHIETYDVTTIRASTPMYLMSRKIKAMGIKMVLSGEGSDEVFGGYLYFHKAPNAKELHEETVRKLLALHMYDCARANKAMSAWGVEARVPFLDKKFLDVAMRINPQDKMCGNGKMEKHILRECFEAYLPASVAWRQKEQFSDGVGYSWIDTLKEVAAQQVSDQQLETARFRFPYNTPTSKEAYLYREIFEELFPLPSAAECVPGGPSVACSSAKAIEWDEAFKKMDDPSGRAVGVHQSAYK | 3.62 ± 0.55 | 2.71 ± 0.25 | 3.181 ± 0.025 | 2.55 ± 0.069 | 2.87 ± 0.069 | 4.97 ± 0.21 | 7.86 ± 0.95 | 2.69 ± 0.025 | 3.857 ± 0.0049 | 5.61 ± 0.3 | 10.4 ± 0.4 | 2.84 ± 0.048 |
| MNLQRFDDSTLIRIFALHELHRLKEHGLTRGALLDYHSRYKLVFLAHSQPEYRKLGPFVADIHQWQNLDDYYNQYRQRVVVLLSHPANPRDHTNVLMHVQGYFRPHIDSTERQQLAALIDSYRRGEQPLLAPLMRIKHYMALYPDAWLSGQRYFELWPRVINLRHSGVL | 5.09 ± 0.47 | 4.66 ± 0.34 | 5.47 ± 0.14 | 4.55 ± 0.27 |  | 5.12 | 11.2 | 4.54 ± 0.59 | 7.5 ± 0.48 | 5.11 ± 0.081 | 12 ± 0.13 | 4.914 ± 0.015 |
| MKALSPIAVLISALLLQGCVAAAVVGTAAVGTKAATDPRSVGTQVDDGTLEVRVNSALSKDEQIKKEARINVTAYQGKVLLVGQSPNAELSARAKQIAMGVDGANEVYNEIRQGQPIGLGEASNDTWITTKVRSQLLTSDLVKSSNVKVTTENGEVFLMGLVTEREAKAAADIASRVSGVKRVTTAFTFIK | 5.42 ± 0.59 |  | 6.34 ± 0.34 | 5.71 ± 0.1 | 3.05 ± 0.21 | 5.72 ± 0.47 | 10.5 ± 1.7 | 5.86 ± 0.3 | 11.9 ± 0.14 | 5.78 ± 0.22 | 12.3 ± 0.21 | 6.43 ± 0.3 |
| MPWIQLKLNTTGANAEDLSDALMEAGAVSITFQDTHDTPVFEPLPGETRLWGDTDVIGLFDAETDMNDVVAILENHPLLGAGFAHKIEQLEDKDWEREWMDNFHPMRFGERLWICPSWRDVPDENAVNVMLDPGLAFGTGTHPTTSLCLQWLDSLDLTGKTVIDFGCGSGILAIAALKLGAAKAIGIDIDPQAIQASRDNAERNGVSDRLELYLPKDQPEEMKADVVVANILAGPLRELAPLISVLPVSGGLLGLSGILASQAESVCEAYADSFALDPVVEKEEWCRITGRKN [P0A8T1] | 5.8 ± 2.4 | 4.39 ± 0.31 | 4.36 ± 0.61 | 3.91 ± 0.063 | 3.16 ± 0.55 | 4.89 ± 0.5 | 9.36 ± 0.56 | 4.39 ± 0.22 | 6.89 ± 0.88 | 5.37 ± 0.1 | 10.86 ± 0.1 | 5.13 ± 1.4 |
| MVAPIPAKRGRKPAVATAPATGQVQSLTRGLKLLEWIAESNGSVALTELAQQAGLPNSTTHRLLTTMQQQGFVRQVGELGHWAIGAHAFMVGSSFLQSRNLLAIVHPILRNLMEESGETVNMAVLDQSDHEAIIIDQVQCTHLMRMSAPIGGKLPMHASGAGKAFLAQLSEEQVTKLLHRKGLHAYTHATLVSPVHLKEDLAQTRKRGYSFDDEEHALGLRCLAACIFDEHREPFAAISISGPISRITDDRVTEFGAMVIKAAKEVTLAYGGMR | 5.87 ± 0.33 | 5.93 ± 0.11 | 5.45 ± 0.43 | 5.348 ± 0.028 | 2.89 ± 0.17 | 5.43 ± 0.46 | 9.91 ± 0.97 | 5.51 ± 0.18 | 9.96 ± 1.1 | 4.91 ± 0.12 | 9.56 ± 0.21 | 5.33 ± 0.38 |
| MREAFICDGIRTPIGRYGGALSSVRADDLAAIPLRELLVRNPRLDAECIDDVILGCANQAGEDNRNVARMATLLAGLPQSVSGTTINRLCGSGLDALGFAARAIKAGDGDLLIAGGVESMSRAPFVMGKAASAFSRQAEMFDTTIGWRFVNPLMAQQFGTDSMPETAENVAELLKISREDQDSFALRSQQRTAKAQSSGILAEEIVPVVLKNKKGVVTEIQHDEHLRPETTLEQLRGLKAPFRANGVITAGNASGVNDGAAALIIASEQMAAAQGLTPRARIVAMATAGVEPRLMGLGPVPATRRVLERAGLSIHDMDVIELNEAFAAQALGVLRELGLPDDAPHVNPNGGAIALGHPLGMSGARLALAASHELHRRNGRYALCTMCIGVGQGIAMILERV [P0C7L2] | 3.42 |  | 2.17 |  | 2.77 ± 0.17 | 3.37 ± 0.079 | 4.76 ± 0.58 |  |  | 4.99 ± 1.1 | 8.63 ± 0.14 |  |
